# From paper PMC3902912
# T1: CTCF11ZF (UniProt Q61164 266-579)
# T1 sequence: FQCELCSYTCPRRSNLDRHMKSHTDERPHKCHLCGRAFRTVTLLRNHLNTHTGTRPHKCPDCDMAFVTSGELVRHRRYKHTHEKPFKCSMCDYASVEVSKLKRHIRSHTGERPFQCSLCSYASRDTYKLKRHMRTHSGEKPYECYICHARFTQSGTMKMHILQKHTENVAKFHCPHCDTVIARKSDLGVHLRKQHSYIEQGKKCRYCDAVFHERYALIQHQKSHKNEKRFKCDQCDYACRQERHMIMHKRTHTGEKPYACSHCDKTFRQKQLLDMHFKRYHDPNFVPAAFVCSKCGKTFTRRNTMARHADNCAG
# B1: LowOc1_Scrambled (dsDNA)
# DNA 1: CCCTGGTCGGTGTGGCTGGCGACACCTCGCACTCTG
# DNA 2: CAGAGTGCGAGGTGTCGCCAGCCACACCGACCAGGG
# Biological target: T1, CTCF11ZF
# Assay: FP competition
binder,measurement,value
B1,binding result,no binding
